Assay results reported in US20260226160A1 (ISAR BIOSCIENCE, published 2026).

What was measured:
[1] = biological target: T1, extracellular domain of human TREM2 (ecTREM2), Hölzel Diagnostika 11084-H08H (human, UniProt Q9NZC2 19-174); assay: ELISA, coated ecTREM2
T1 construct: extracellular domain; also called human ecTREM2; ecTREM2 domain
T1 sequence (looked up): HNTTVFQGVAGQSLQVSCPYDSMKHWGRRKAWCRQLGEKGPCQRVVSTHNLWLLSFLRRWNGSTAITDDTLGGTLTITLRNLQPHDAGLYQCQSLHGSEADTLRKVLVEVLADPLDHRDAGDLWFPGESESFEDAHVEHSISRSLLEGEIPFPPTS
Description: (§1) Anti-TREM2 antibody binding to the extracellular domain of TREM2 (ecTREM2) or to the human or mouse peptide fragment of the stalk region of TREM2 were quantified in an ELISA assay. All procedures were performed at room temperature and incubations were done on a microtiter plate shaker. ELISA plate was coated with 60 μl/well (final concentration 0.5 μg/ml) of the according ligand (ecTREM2 (Hölzel Diagnostika, 11084-H08H) or human or mouse TREM2 peptide fragment) in coating buffer (NaHCO₃) for 1 h. The coated plate was washed three times with PBS-T (PBS, 0.1% Tween-20), blocked with 100 μl/well of blocking solution (PBS-T, 3% milk powder) for 1 h, and washed again. Antibodies were pre-diluted 1:10 in PBS and set to a concentration of 1 μg/ml. A dilution series was performed with dilution steps of 1:3 and 1:10. 50 μl/well of diluted AB were transferred to the blocked ELISA plate and incubated for 1 h. The plate was washed three times with PBS-T and incubated with anti-human-Strep-POD (Jackson Immunoresearch, #109-035-098) diluted in PBS-T 1:10000 for 1 h. After washing three times, bound POD was detected by incubation with 100 μl/well of TMB substrate (Thermo Scientific, #34029) until a maximal optical density (OD) of about 1 to 2 was reached. Finally, the colorimetric reaction was stopped with 100 μl/well stopping solution (1M H₂SO₄) and the OD determined at a wavelength of 450 nm with a reference wavelength of 595 nm in a plate reader (SpectraMax i3xl).
(§2) We determined the binding affinity of all antibody clones including M07 as well as of the control antibody H01 and negative control (not shown here), to ecTREM2 by an ELISA-based binding assay (FIG. 2).

[2] = biological target: T2, human TREM2 (hTREM2) on cells (human, UniProt Q9NZC2 19-230); assay: cell-based or functional assay
T2 sequence (looked up): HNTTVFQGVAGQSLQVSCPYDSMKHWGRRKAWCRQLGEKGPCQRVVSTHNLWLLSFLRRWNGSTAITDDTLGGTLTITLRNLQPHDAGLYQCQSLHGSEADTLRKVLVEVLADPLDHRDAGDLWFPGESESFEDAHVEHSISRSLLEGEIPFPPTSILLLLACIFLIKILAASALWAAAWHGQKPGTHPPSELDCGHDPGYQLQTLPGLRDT

[3] = biological target: T3, epitope peptide from the human TREM2 stalk region (DAGDLWFPG) (human); assay: ELISA, coated epitope peptide SEQ ID NO: 16
T3 construct: also called human TREM2 peptide fragment
T3 peptide: DAGDLWFPG
Description: as §1

[4] = biological target: T3, epitope peptide from the human TREM2 …; assay: ELISA, coated epitope peptide (0.5 µg/ml), antibody dilution series
Description: as §1, with “The plate was washed three times with PBS-T and incubated with anti-human-Strep-POD (Jackson Immunoresearch, #109-035-098) diluted in PBS-T 1:10000 for 1 h.” left out

[5] = biological target: T1, extracellular domain of human TREM2 …; assay: ELISA, coated ecTREM2 (0.5 µg/ml), antibody dilution series
Description: as §1, with “A dilution series was performed with dilution steps of 1:3 and 1:10. 50 μl/well of diluted AB were transferred to the blocked ELISA plate and incubated for 1 h. The plate was washed three times with PBS-T and incubated with anti-human-Strep-POD (Jackson Immunoresearch, #109-035-098) diluted in PBS-T 1:10000 for 1 h.” left out
as §2

[6] = biological target: T2, human TREM2 (hTREM2) on cells; assay: cell-based or functional assay; remark: listed apart in the source
[7] = biological target: T2, human TREM2 (hTREM2) on cells; assay: printed with the p-SYK titration curve of M07 on HEK293-Flp-In hTREM2/hDAP12 cells (FIG. 6B); how it was derived is not told
Description: Phosphorylated SYK (p-Syk) was measured using the AlphaLISA SureFire Ultra p-SYK Assay Kit (PerkinElmer, ALSU-PSYK-A-HV) following the manufacturer's instructions. Briefly, HEK293 cells overexpressing human TREM2 and human DAP12 were plated in 50 μl media at a density of 50,000 cells/well in a 96-well plate and incubated overnight at 37° C. in a cell culture incubator. The next day medium was removed and 50 μl of antibody diluted in medium was added to the cells. Following an incubation for 5 min at 37° C. treatment solutions were removed and cells were lysed with 50 μl lysis buffer supplemented with phosphatase inhibitor (VWR) for 10 min on a plate shaker (~350 rpm). 30 μl of lysate were then used for further incubation steps with acceptor and donor beads (each for 1 h) following analysis using a CLARIOstar^Plus Plate Reader (BMG Labtech).

B1: antibody M03 (clone M03), fully human IgG1-LALA (antibody, V domains shown)
VH: EVQLVQSGGGLVQPGGSLRLSCAASGFTFSSYGITWVRQAPGKGLEWVSFISGGGSYTYYADSVKGRFTISRDNAKRTLYLQMNSLRAEDTAVYYCARSGRAYFDYWGQGTLVTVSS
VL: DIRLTQPPSVSGAPGQRVTISCSGSSSNIGSLFVSWYQQLPGTAPKLLIYSNSQHPSGVPDRFSGSKSGTSASLAITGLQAEDEADYYCSAYDQFSNSVVFGGGTKLTVLG
EC50 [1]: 0.35 nM | Mean values of fold increase over baseline (p-SYK AlphaLISA, 40 µg/ml antibody, HEK293-Flp-In hTREM2/hDAP12) [2]: 9.39 fold | EC50 [3]: 0.329 nM

B2: antibody M05 (clone M05), fully human IgG1-LALA (antibody, V domains shown)
VH: EVQLLESGGGLVQPGGSLRLSCAASGFTFSSNAMTWVRQAPGKGLEWVSVIGSSGSYTYYADSVKGRFTISRDNSKNTLYLQMNSLRAEDTAVYYCARSGTTGFDYWGQGTLVTVSS
VL: DIVMTQPPSVSVTPGQRVTISCRSSSSNIGSLFVSWYQQLPGTAPKLLIYSNSQHPSGVPDRFSGSKSGTSASLAITGLQAEDEADYYCSAYDQFSNSVVFGGGTKLTVLR
binding result [4]: no binding | Mean values of fold increase over baseline (p-SYK AlphaLISA, 40 µg/ml antibody, HEK293-Flp-In hTREM2/hDAP12) [2]: 1.07 fold | binding result [5]: no binding

B3: antibody H08 (clone H08), fully human IgG1-LALA (antibody, V domains shown)
VH: EVQLVQSGGGLVQPGGSLRLSCAASGFTFSSYAMSWVRQAPGKGLEWVSAISGSGGSTYYADSVKGRFTISRDNAKRSLYLQMNDLRVEDTAVYYCARTRTNVFDFWGQGTMVTVSS
VL: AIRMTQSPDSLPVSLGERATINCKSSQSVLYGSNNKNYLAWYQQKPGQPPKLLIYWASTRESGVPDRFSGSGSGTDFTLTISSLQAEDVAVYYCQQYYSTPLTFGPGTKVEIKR
EC50 [1]: 0.19 nM | Mean values of fold increase over baseline (p-SYK AlphaLISA, 40 µg/ml antibody, HEK293-Flp-In hTREM2/hDAP12) [2]: 3.22 fold | EC50 [3]: 0.832 nM

B4: antibody M07 (clone M07), fully human anti-hTREM2 IgG1-LALA-TFN (antibody, V domains shown)
VH: EVQLLESGGGLVQPGGSLRLTCAASGFTFSSYAMSWVRQAPGKGLEWVSVINGRGSNTYYADSVKGRFTITRDNSKNTLYLEMNSLRAEDTAVYYCARVRAYSGPSYGFDYWGQGTLVTVSS
VL: DIQLTQSPLSLSASAGDRVTITCRASQSIRDYLGWYQQKPGKAPKLLIYAASKLQSGVPSRFSGSGSGTDFTLTISSLQPEDFATYYCQQSYHTPPFTFGQGTKVEIKR
notes: leaders are cleaved off; also called anti-hTREM2 antibody M07; MO7
EC50 of p-SYK signaling titration in HEK293-Flp-In hTREM2/hDAP12 [6]: 4.39 nM | SYK phosphorylation, fold increase [6]: ≤ 60 fold | EC50 [1]: 0.204 nM | Mean values of fold increase over baseline (p-SYK AlphaLISA, 40 µg/ml antibody, HEK293-Flp-In hTREM2/hDAP12) [2]: 36.1 fold | EC50 [3]: 0.335 nM | Kd [7]: 2.19 nM
